Experimental data published in article PMC11321638 (Advanced Science, 2024).

Tested on: HT22 nerve cell
Format: cell-based, Mouse

With Botulinum Toxin Type A [Botox] the “induction of apoptosis in HT22 cells” value was “dose‐dependent induction of apoptosis” and the “necrocytosis of HT22 cells” value was “neither RSI prion nor Botox induced necrocytosis”.
